Measurements as given in PMC4964276.

Key:
[1] = target: AKAP18β 30-mer peptide, Ala63 to aspartate (human); experiment: peptide or protein array
[2] = target: AKAP18β 30-mer peptide, Val60 to aspartate (human); experiment: peptide or protein array
[3] = target: AKAP18β 30-mer peptide, Ala67 to aspartate (human); experiment: peptide or protein array
[4] = target: AKAP18β 30-mer peptide, Val64 to aspartate (human); experiment: peptide or protein array
[5] = target: PKA RIIα (Homo sapiens) (UniProt P13861); experiment: SPR; conditions: cited from earlier work
PKA RIIα (Homo sapiens), sequence (P13861 2-404): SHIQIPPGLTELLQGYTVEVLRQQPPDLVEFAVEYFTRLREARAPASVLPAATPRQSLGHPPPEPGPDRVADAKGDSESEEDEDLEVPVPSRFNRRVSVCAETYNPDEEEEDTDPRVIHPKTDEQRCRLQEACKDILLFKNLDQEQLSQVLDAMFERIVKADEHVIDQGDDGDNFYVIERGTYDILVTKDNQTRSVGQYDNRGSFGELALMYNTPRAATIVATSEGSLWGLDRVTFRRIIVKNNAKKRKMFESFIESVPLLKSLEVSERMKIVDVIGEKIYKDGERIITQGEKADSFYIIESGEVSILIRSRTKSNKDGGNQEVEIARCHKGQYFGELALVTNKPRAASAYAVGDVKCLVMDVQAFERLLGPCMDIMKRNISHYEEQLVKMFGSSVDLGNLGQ

RIIα subunits, recombinant, radioactively labelled (32P), sequence (P13861 whole entry): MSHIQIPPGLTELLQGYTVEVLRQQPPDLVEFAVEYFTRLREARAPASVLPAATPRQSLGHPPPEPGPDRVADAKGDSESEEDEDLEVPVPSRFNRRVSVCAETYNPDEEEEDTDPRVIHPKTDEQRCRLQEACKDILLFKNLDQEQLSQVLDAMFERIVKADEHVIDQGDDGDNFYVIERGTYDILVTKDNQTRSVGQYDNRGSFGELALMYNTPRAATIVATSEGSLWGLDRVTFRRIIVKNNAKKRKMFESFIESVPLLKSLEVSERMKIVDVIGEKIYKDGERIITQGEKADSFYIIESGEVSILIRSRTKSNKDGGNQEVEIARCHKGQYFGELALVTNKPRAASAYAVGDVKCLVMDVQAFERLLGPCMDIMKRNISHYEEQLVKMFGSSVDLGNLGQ
AKAP18δ PKA-binding domain peptide PKA-binding domain (25 aa), sequence (Q9P0M2 295-319, stated change not applied): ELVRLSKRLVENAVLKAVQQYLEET

Substance	reduction of binding (% against the wild-type peptide) [1] [%]	reduction of binding (% against the wild-type peptide) [2] [%]	reduction of binding (% against the wild-type peptide) [3] [%]	reduction of binding (% against the wild-type peptide) [4] [%]	Kd [5] [nM]
RIIα subunits, recombinant, radioactively labelled (32P) (from UniProt P13861 1-404) (natural protein)	> 60	> 60	> 60	> 60	–
AKAP18δ PKA-binding domain peptide PKA-binding domain (25 aa) (from UniProt Q9P0M2)	–	–	–	–	0.4
